Experimental data reported in patent US20080293089.

T1: S5a (substrate in the E3 ligase selectivity example), P55036
T1 chain: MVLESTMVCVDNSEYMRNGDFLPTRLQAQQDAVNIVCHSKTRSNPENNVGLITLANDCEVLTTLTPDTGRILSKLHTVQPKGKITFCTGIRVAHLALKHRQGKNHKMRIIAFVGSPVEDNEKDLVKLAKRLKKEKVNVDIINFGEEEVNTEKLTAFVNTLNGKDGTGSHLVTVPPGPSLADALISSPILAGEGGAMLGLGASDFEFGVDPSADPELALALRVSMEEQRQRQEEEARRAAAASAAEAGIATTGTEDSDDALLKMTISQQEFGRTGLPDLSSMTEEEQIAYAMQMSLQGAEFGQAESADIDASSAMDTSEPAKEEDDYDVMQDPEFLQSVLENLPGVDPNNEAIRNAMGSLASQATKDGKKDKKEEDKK


Target: T1, S5a (substrate in the E3 ligase …)

Protein | Ubiquitinated S5a?
GST-Siah2 (protein) MSRPSSTGPSANKPCSKQPPPQPQHTPSPAAPPAAATISAAGPGSSAVPAAAAVISGPGGGGGAGPVSPQHHELTSLFECPVCFDYVLPPILQCQAGHLVCNQCRQKLSCCPTCRGALTPSIRNLAMEKVASAVLFPCKYATTGCSLTLHHTEKPEHEDICEYRPYSCPCPGASCKWQGSLEAVMSHLMHAHKSITTLQGEDIVFLATDINLPGAVDWVMMQSCFGHHFMLVLEKQEKYEGHQQFFAIVLLIGTRKQAENFAYRLELNGNRRRLTWEATPRSIHDGVAAAIMNSDCLVFDTAIAHLFADNGNLGINVTISTCCP | Yes (low)
His-CHIP (protein) MKGKEEKEGGARLGAGGGSPEKSPSAQELKEQGNRLFVGRKYPEAAACYGRAITRNPLVAVYYTNRALCYLKMQQHEQALADCRRALELDGQSVKAHFFLGQCQLEMESYDEAIANLQRAYSLAKEQRLNFGDDIPSALRIAKKKRWNSIEERRIHQESELHSYLSRLIAAERERELEECQRNHEGDEDDSHVRAQQACIEAKHDKYMADMDELFSQVDEKRKKRDIPDYLCGKISFELMREPCITPSGITYDRKDIEEHLQRVGHFDPVTRSPLTQEQLIPNLAMKEVIDAFISENGWVEDY | Yes
GST-Nedd4 (protein) MATCAVEVFGLLEDEENSRIVRVRVIAGIGLAKKDILGASDPYVRVTLYDPMNGVLTSVQTKTIKKSLNPKWNEEILFRVHPQQHRLLFEVFDENRLTRDDFLGQVDVPLYPLPTENPRLERPYTFKDFVLHPRSHKSRVKGYLRLKMTYLPKTSGSEDDNAEQAEELEPGWVVLDQPDAACHLQQQQEPSPLPPGWEERQDILGRTYYVNHESRRTQWKRPTPQDNLTDAENGNIQLQAQRAFTTRRQISEETESVDNRESSENWEIIREDEATMYSNQAFPSPPPSSNLDVPTHLAEELNARLTIFGNSAVSQPASSSNHSSRRGSLQAYTFEEQPTLPVLLPTSSGLPPGWEEKQDERGRSYYVDHNSRTTTWTKPTVQATVETSQLTSSQSSAGPQSQASTSDSGQQVTQPSEIEQGFLPKGWEVRHAPNGRPFFIDHNTKTTTWEDPRLKIPAHLRGKTSLDTSNDLGPLPPGWEERTHTDGRIFYINHNIKRTQWEDPRLENVAITGPAVPYSRDYKRKYEFFRRKLKKQNDIPNKFEMKLRRATVLEDSYRRIMGVKRADFLKARLWIEFDGEKGLDYGGVAREWFFLISKEMFNPYYGLFEYSATDNYTLQINPNSGLCNEDHLSYFKFIGRVAGMAVYHGKLLDGFFIRPFYKMMLHKPITLHDMESVDSEYYNSLRWILENDPTELDLRFIIDEELFGQTHQHELKNGGSEIVVTNKNKKEYIYLVIQWRFVNRIQKQMAAFKEGFFELIPQDLIKIFDENELELLMCGLGDVDVNDWREHTKYKNGYSANHQVIQWFWKAVLMMDSEKRIRLLQFVTGTSRVPMNGFAELYGSNGPQSFTVEQWGTPEKLPRAHTCFNRLDLPPYESFEELWDKLQMAIENTQGFDGVD | Yes
GST-Murf1 (protein) MDYKSSLIQDGNPMENLEKQLICPICLEMFTKPVVILPCQHNLCRKCANDIFQAANPYWTSRGSSVSMSGGRFRCPTCRHEVIMDRHGVYGLQRNLLVENIIDIYKQECSSRPLQKGSHPMCKEHEDEKINIYCLTCEVPTCSMCKVFGIHKACEVAPLQSVFQGQKTELNNCISMLVAGNDRVQTIITQLEDSRRVTKENSHQVKEELSQKFDTLYAILDEKKSELLQRITQEQEKKLSFIEALIQQYQEQLDKSTKLVETAIQSLDEPGGATFLLTAKQLIKSIVEASKGCQLGKTEQGFENMDFFTLDLEHIADALRAIDFGTDEEEEEFIEEEDQEEEESTEGKEEGHQ | Yes
GST-E6AP (protein) MEKLHQCYWKSGEPQSDDIEASRMKRAAAKHLIERYYHQLTEGCGNEACTNEFCASCPTFLRMDNNAAAIKALELYKINAKLCDPHPSKKGASSAYLENSKGAPNNSCSEIKMNKKGARIDFKDVTYLTEEKVYEILELCREREDYSPLIRVIGRVFSSAEALVQSFRKVKQHTKEELKSLQAKDEDKDEDEKEKAACSAAAMEEDSEASSSRIGDSSQGDNNLQKLGPDDVSVDIDAIRRVYTRLLSNEKIETAFLNALVYLSPNVECDLTYHNVYSRDPNYLNLFIIVMENRNLHSPEYLEMALPLFCKAMSKLPLAAQGKLIRLWSKYNADQIRRMMETFQQLITYKVISNEFNSRNLVNDDDAIVAASKCLKMVYYANVVGGEVDTNHNEEDDEEPIPESSELTLQELLGEERRNKKGPRVDPLETELGVKTLDCRKPLIPFEEFINEPLNEVLEMDKDYTFFKVETENKFSFMTCPFILNAVTKNLGLYYDNRIRMYSERRITVLYSLVQGQQLNPYLRLKVRRDHIIDDALVRLEMIAMENPADLKKQLYVEFEGEQGVDEGGVSKEFFQLVVEEIFNPDIGMFTYDESTKLFWFNPSSFETEGQFTLIGIVLGLAIYNNCILDVHFPMVVYRKLMGKKGTFRDLGDSHPVLYQSLKDLLEYEGNVEDDMMITFQISQTDLFGNPMMYDLKENGDKIPITNENRKEFVNLYSDYILNKSVEKQFKAFRRGFHMVTNESPLKYLFRPEEIELLICGSRNLDFQALEETTEYDGGYTRDSVLIREFWEIVHSFTDEQKRLFLQFTTGTDRAPVGGLGKLKMIIAKNGPDTERLPTSHTCFNVLLLPEYSSKEKLKERLLKAITYAKGFGML | Yes
